Measurements as given in the nanobody polyreactivity screen of Harvey et al. (2022).

Assay: yeast display, Sf9 membrane polyspecificity reagent, FACS + sequencing; frameworks hold sequencing errors
Summary of the method: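 Polyreactivity labels are assigned by the sorting gate from which each nanobody was recovered. The gates were low and high (top ~1%), set on anti-HA fluorescence for expression and streptavidin fluorescence for reagent binding. Before sorting, galactose-induced (36–48 hours) yeast display cells were stained for 1 hour at 4 °C with 10% biotinylated, detergent-solubilized Sf9 membrane reagent.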

Row | Sequence | polyreactivity (PSR sort gate)
1 | QVQLVESGGGLVQAGGRLRLSCAASGSIFRIYTMGWYRQEPGKERELVAAINSGGSTNYADSVKGRFTISRDNAKNTVYLQMNSLKPEDTAVYYCAATWWQYDQGLHRYDYWGQGTQVTVSS | high polyreactivity
2 | QVQLVESGGGLFQAGGSLRLSCAASGSIFGYYAMGWYIQAPGKERELVARISYSGGTTYYADSVKGRFTISRDNAKNTVYLQMNSLKPEDTAVYYCNARIPYSWRYGYWGQGTQVTVSS | high polyreactivity
3 | QVQLVESGGGLVQAGGSLRLSCAASGRIFSVYAMGWYRQAPGKEREFVAAITKGGVGTYYADSVKGRFTISRDNAKNTVSLQMNCLKPEDTAVYYCAARGTSRQTWLFRYNWNDYWGQGTQVTVSS | high polyreactivity
4 | QVQLVESGGGLVQAGGSLRLSCAASGFIFANYAMGWYRQAPGKERELVAAISTSGSSTYYADSVKGRFTISRDNAKNTVYLQMNSLKPEDTAVYYCNTYLTIWGYFYGYDYWGQGTQVTVSS | high polyreactivity
5 | QVQLVESVGGLVQAGGSLRLSCAASGGIFNGYAMGWYRQAPGKERELVAAITASGARTYYADSVKGRFTISRDNAKNTVYLQMNSLKPEDTAVYYCAKGFSYPGGPYYYFLGYGYWGQGTQVTVSS | high polyreactivity
6 | QVQLVESGGGLVQAGGSLRLSCAASGRTFGFYAMGWYRQAPGKERELVATISSSGGSTYYADSVKGRFTISRDNAKNTVYLQMNSLKPEDTAVYYCAKVVSGWRSHYIGDYWGQGTQVTVSS | low polyreactivity
7 | QDQHVESGGGLVQAGGRLRLSCAASGRIFSFYVMGWYIQAPGKERELVASISLSGGSTYYADSVKGRFTFSRDNAKNTVYLQMNSLKPEDTEVYYCNAVLYARQRERWARYDYWGQGTQVTVSS | high polyreactivity
8 | QVQLVESVGGLVQAGGRLRLSCAASGSIFLYNAMGWYRQAPGKERELVAVINGRGGTYYADSVKGRFTISRDNAKNTVYLQMNSLKPEDTAVYYCATGYPPSAGYDSVRFEDRDSWGQGTQVTVSS | low polyreactivity
9 | QVQLVESGGGLVQAGGSLRLSCAASGSIFAYYAMGWYRQAPGKERELVAAISSGGGTYYADSVKGRFTISRDNAKNTVYLQMNSLKPEDTAVYYCARRYRAHYQYLYDYWGQGTQVSVSS | low polyreactivity
10 | QVQLVESGGGLVQAGGSLRLSCAASGFIFNRYAMGWYRQAPGKERELVAGITSSGGSTYYADSVKGRFTISRDNAKNTVYLQMNSLKPEDTAVYYCNADSWLYRFFGYDYWGQGTQVTVSS | low polyreactivity
11 | QVQLVESGVGLVQAGGSLRLSCAASGSIFGVNMGWYRQAPGKERELVASITSGGSTNYADSVKGRFTISRDNAKNTVYLQMNSLKPEDTAVYYCATDRYVWGQGTQVTVSS | low polyreactivity
12 | QVQLVESGGGLVQAGGSLRLSCAASGFTFCSNAMGWYRQAPGKERELVAAITWSGGRTYYADSVKGRFTISRDNAKNTVYLQMNSLKPEDTAVYYCNAYRNWWWSQYDYWGQGTQVTVSS | high polyreactivity
13 | QVQLVESGGGLVQAGGSLRLSCAASGRTFRGYAMGWYRQAPGKERELVAGIRRGGSTNYADSVKGRFTISRDNSKNTVSLQMNSLKPEDTAVYYCAKTYTVSQPSLRTYYYWGQGTQVTVSS | high polyreactivity
14 | QVQLVESGGGLVQAGGSLRLSCAASGRTSILYAMGWYRQAPGKERELVATIYSGGRTYYADSVKGRFTISRDNAKNTVYLQMNSLKPEDTAVYYCAARPNATPRGQTKHYYWGQGTQVTVSS | high polyreactivity
15 | QVQLVESGGGLVQAGGILRLTCAASGRIFIYYAMGWYRQAPGKERELVAAISWGGGRTYYADSVKGRFTISRDNAKNTVYLQMNSLKPEDTAVYNCAAGVYTGQHEYDYWGQGTQVTVSS | low polyreactivity
16 | QVQLVESGGGLVQAGGSLRLSCASSGSTFPPYAMGWYRQAPGKERELVAAISYRDTGTYYADSVKGRFTISRDNAKNTVYFQMNSLKPEDTAVYYCAADYHIVYYFLYYYWGQGTQVTVSS | low polyreactivity
17 | QVQLVESGGGLVQAGGSLRLSSAASGRIFSDYAMGWYRQAPGKERELVATITSGDSTNYGDSVKGRFTISRDNAKNTVYLQMNSLKTESTEVYYCNAERFPDYDYWGQGTQVTVSS | low polyreactivity
18 | QVQLVESGGGLVQAGGSLRLSCAASGRIFYAYAMGGYRQAPGKERELVASISGGGSTDYADSVKGRFTISRDNAMNTVYLQMNSLKPEDTAVYDCAAKRISYYSYNFDYWGEGTQVTVSS | high polyreactivity
19 | QVQLVESGGGLVQAGGSLRLSCAASGYTFDPNAMGWYRQAPGKERELVAAISRIGGSTYYADSVKGRFTISRDNAKNTVYLQMKSLKPEDTAVYYCAVDWYLTGHWADDYWGQGTQVTVSS | low polyreactivity
20 | QVQLVESGGGLVQAGGSLRLSCAASGRTFLYVMGWYRQAPGKERELVAAISRGGSTSYADSVKGRFTISRDNAKNTVYLQMNSLKPEDTAVYYCAATNYWRDGYWGQGTQVTVSS | high polyreactivity
21 | QVQLEESGGRLVQAGGSLRLICAASGRIFRFYTMGWYIQAPGKERELVAAITSSGRTYYADSVKGRFTISRDNAKNTVYLQMKSLKPEDTAVYYCNKYFRPRTILPSPGEYLGQGTQVTVSS | high polyreactivity
